± gives the uncertainty stated by the source.

The series can be described thus: abundance fitness (aPCA) (normalised: wild type 0, dead -1); higher = more abundant; growth selection in yeast, the domain comes from the species named. The conditions noted are these: Homo sapiens.
“Lipoamide acyltransferase component of branched-chain alpha-keto acid dehydrogenase complex, mitochondrial G214W, P11182” displayed an abundance fitness of -0.315 ± 0.054.

Consider “Lipoamide acyltransferase component of branched-chain alpha-keto acid dehydrogenase complex, mitochondrial G214Y, P11182”, for which the abundance fitness is -0.189 ± 0.12.

For “Lipoamide acyltransferase component of branched-chain alpha-keto acid dehydrogenase complex, mitochondrial I186A, P11182”, the abundance fitness was -0.555 ± 0.044. Take “Lipoamide acyltransferase component of branched-chain alpha-keto acid dehydrogenase complex, mitochondrial I186C, P11182”: the abundance fitness is -0.239 ± 0.074. As for “Lipoamide acyltransferase component of branched-chain alpha-keto acid dehydrogenase complex, mitochondrial I186D, P11182”, the abundance fitness was -0.81 ± 0.077. Substance “Lipoamide acyltransferase component of branched-chain alpha-keto acid dehydrogenase complex, mitochondrial I186E, P11182” displayed an abundance fitness of -0.543 ± 0.065.

For “Lipoamide acyltransferase component of branched-chain alpha-keto acid dehydrogenase complex, mitochondrial I186F, P11182”, the abundance fitness was -0.9 ± 0.18.

In turn, “Lipoamide acyltransferase component of branched-chain alpha-keto acid dehydrogenase complex, mitochondrial I186G, P11182” came in with an abundance fitness of -0.748 ± 0.042. For the substance “Lipoamide acyltransferase component of branched-chain alpha-keto acid dehydrogenase complex, mitochondrial I186H, P11182”, the abundance fitness is -0.679 ± 0.091. For the substance “Lipoamide acyltransferase component of branched-chain alpha-keto acid dehydrogenase complex, mitochondrial I186K, P11182”, the abundance fitness was -0.533 ± 0.4.

With “Lipoamide acyltransferase component of branched-chain alpha-keto acid dehydrogenase complex, mitochondrial I186L, P11182”, the abundance fitness is -0.32 ± 0.057.

“Lipoamide acyltransferase component of branched-chain alpha-keto acid dehydrogenase complex, mitochondrial I186M, P11182” returned an abundance fitness of -0.419 ± 0.069. “Lipoamide acyltransferase component of branched-chain alpha-keto acid dehydrogenase complex, mitochondrial I186N, P11182”: the abundance fitness was -0.735 ± 0.097. Turning to “Lipoamide acyltransferase component of branched-chain alpha-keto acid dehydrogenase complex, mitochondrial I186P, P11182”, the abundance fitness is -0.918 ± 0.11. Substance “Lipoamide acyltransferase component of branched-chain alpha-keto acid dehydrogenase complex, mitochondrial I186R, P11182” yielded an abundance fitness of -0.722 ± 0.049. As for “Lipoamide acyltransferase component of branched-chain alpha-keto acid dehydrogenase complex, mitochondrial I186S, P11182”, the abundance fitness is -0.594 ± 0.064. Take “Lipoamide acyltransferase component of branched-chain alpha-keto acid dehydrogenase complex, mitochondrial I186T, P11182”: the abundance fitness is -0.484 ± 0.091. As to “Lipoamide acyltransferase component of branched-chain alpha-keto acid dehydrogenase complex, mitochondrial I186V, P11182”, the abundance fitness is -0.046 ± 0.046.

In turn, “Lipoamide acyltransferase component of branched-chain alpha-keto acid dehydrogenase complex, mitochondrial I186W, P11182” returned an abundance fitness of -1.05 ± 0.094. The substance “Lipoamide acyltransferase component of branched-chain alpha-keto acid dehydrogenase complex, mitochondrial I200A, P11182” yielded an abundance fitness of -0.66 ± 0.048. Turning to “Lipoamide acyltransferase component of branched-chain alpha-keto acid dehydrogenase complex, mitochondrial I200C, P11182”, the abundance fitness is -0.589 ± 0.062. “Lipoamide acyltransferase component of branched-chain alpha-keto acid dehydrogenase complex, mitochondrial I200D, P11182”: the abundance fitness is -0.567 ± 0.21. Substance “Lipoamide acyltransferase component of branched-chain alpha-keto acid dehydrogenase complex, mitochondrial I200E, P11182” displayed an abundance fitness of -0.558 ± 0.072.

Take “Lipoamide acyltransferase component of branched-chain alpha-keto acid dehydrogenase complex, mitochondrial I200F, P11182”: the abundance fitness is -0.76 ± 0.097. As for “Lipoamide acyltransferase component of branched-chain alpha-keto acid dehydrogenase complex, mitochondrial I200G, P11182”, the figure is -0.667 ± 0.045. “Lipoamide acyltransferase component of branched-chain alpha-keto acid dehydrogenase complex, mitochondrial I200H, P11182” displayed an abundance fitness of -0.678 ± 0.089.

Substance “Lipoamide acyltransferase component of branched-chain alpha-keto acid dehydrogenase complex, mitochondrial I200L, P11182” came in with an abundance fitness of -0.334 ± 0.043. “Lipoamide acyltransferase component of branched-chain alpha-keto acid dehydrogenase complex, mitochondrial I200M, P11182”: the abundance fitness is -0.563 ± 0.061.

The substance “Lipoamide acyltransferase component of branched-chain alpha-keto acid dehydrogenase complex, mitochondrial I200N, P11182” came in with an abundance fitness of -0.711 ± 0.28. Substance “Lipoamide acyltransferase component of branched-chain alpha-keto acid dehydrogenase complex, mitochondrial I200P, P11182” had an abundance fitness of -0.483 ± 0.05. With “Lipoamide acyltransferase component of branched-chain alpha-keto acid dehydrogenase complex, mitochondrial I200Q, P11182”, the abundance fitness was -0.643 ± 0.07.

“Lipoamide acyltransferase component of branched-chain alpha-keto acid dehydrogenase complex, mitochondrial I200R, P11182” returned an abundance fitness of -0.764 ± 0.045. As for “Lipoamide acyltransferase component of branched-chain alpha-keto acid dehydrogenase complex, mitochondrial I200S, P11182”, the abundance fitness was -0.76 ± 0.042. Take “Lipoamide acyltransferase component of branched-chain alpha-keto acid dehydrogenase complex, mitochondrial I200T, P11182”: the abundance fitness is -0.625 ± 0.06.

As for “Lipoamide acyltransferase component of branched-chain alpha-keto acid dehydrogenase complex, mitochondrial I200V, P11182”, the abundance fitness is -0.021 ± 0.039.

Substance “Lipoamide acyltransferase component of branched-chain alpha-keto acid dehydrogenase complex, mitochondrial I200W, P11182” registered an abundance fitness of -0.852 ± 0.063. The same measure for “Lipoamide acyltransferase component of branched-chain alpha-keto acid dehydrogenase complex, mitochondrial I205A, P11182”: -0.356 ± 0.041. In the case of “Lipoamide acyltransferase component of branched-chain alpha-keto acid dehydrogenase complex, mitochondrial I205C, P11182”, the abundance fitness is -0.16 ± 0.052. The same measure for “Lipoamide acyltransferase component of branched-chain alpha-keto acid dehydrogenase complex, mitochondrial I205E, P11182”: -0.289 ± 0.047; for “Lipoamide acyltransferase component of branched-chain alpha-keto acid dehydrogenase complex, mitochondrial I205G, P11182”: -0.359 ± 0.037. Substance “Lipoamide acyltransferase component of branched-chain alpha-keto acid dehydrogenase complex, mitochondrial I205H, P11182” had an abundance fitness of -0.408 ± 0.064. The substance “Lipoamide acyltransferase component of branched-chain alpha-keto acid dehydrogenase complex, mitochondrial I205K, P11182” showed an abundance fitness of -0.302 ± 0.052. The same measure for “Lipoamide acyltransferase component of branched-chain alpha-keto acid dehydrogenase complex, mitochondrial I205L, P11182”: -0.086 ± 0.037. As for “Lipoamide acyltransferase component of branched-chain alpha-keto acid dehydrogenase complex, mitochondrial I205M, P11182”, the figure is -0.28 ± 0.054; as for “Lipoamide acyltransferase component of branched-chain alpha-keto acid dehydrogenase complex, mitochondrial I205N, P11182”, -0.551 ± 0.11. The substance “Lipoamide acyltransferase component of branched-chain alpha-keto acid dehydrogenase complex, mitochondrial I205Q, P11182” showed an abundance fitness of -0.302 ± 0.048.
